The target in assay [1] is T1, RbAp46 (pRB-associated protein p46), human, recombinant (human, UniProt Q16576 1-411).
T1 construct: RbAp46 (RBBP7), human; also called RBBP7; RbAb46; source: recombinant, expressed and purified as described previously (Verreault et al., 1998; Berger et al., 2004)
As to the kind of experiment: SPR; RbAp46 crosslinked to a CM5 chip, N-terminal histone H4 peptide as analyte; 10 mM HEPES (pH 7.4), 150 mM NaCl, 0.0005% (v/v) Surfactant P20. Conditions: both partners purified. (In general: Surface plasmon resonance follows binding to a sensor surface in real time, without labels.)

Assay [2] has as its target T1, RbAp46 (pRB-associated protein p46), …. In words: other fluorescence titration; intrinsic tryptophan fluorescence of 45 nM RbAp46, increasing H3/H4 or H4 peptide (16-41); 50 mM Tris-HCl (pH 7.5), 200 mM NaCl, 5 mM DTT, 25°C; excitation 295 nm, emission 435 nm; single binding-site model; KD for H3/H4 called apparent. Particulars: both partners purified.

T1 sequence (Q16576 1-411): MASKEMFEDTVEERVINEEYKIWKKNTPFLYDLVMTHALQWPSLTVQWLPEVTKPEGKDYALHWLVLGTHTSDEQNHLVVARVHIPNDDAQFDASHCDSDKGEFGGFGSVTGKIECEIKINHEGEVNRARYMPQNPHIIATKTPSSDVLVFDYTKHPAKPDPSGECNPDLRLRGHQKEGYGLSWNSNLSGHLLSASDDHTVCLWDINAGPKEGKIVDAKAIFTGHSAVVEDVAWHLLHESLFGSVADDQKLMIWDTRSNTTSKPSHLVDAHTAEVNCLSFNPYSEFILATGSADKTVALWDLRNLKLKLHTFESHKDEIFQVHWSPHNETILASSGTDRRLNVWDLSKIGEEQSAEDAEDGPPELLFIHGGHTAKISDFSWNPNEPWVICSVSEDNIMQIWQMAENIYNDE

B1: synthetic histone H4 peptide (residues 16-41) (peptide)
peptide: not shown
notes: histone H4 residues 16-41; also called N-terminal histone H4 peptide; H4(16-41); source: synthetic peptide
Consider B1, for which the values for the Kd in assay [1] and in assay [2] were around 1000 nM and 1100 nM, respectively.

The record behind these values is publication PMC2572730, “Structural Basis for the Recognition of Histone H4 by the Histone-Chaperone RbAp46” (Structure(London, England:1993), 2008).
